According to patent US11944665B2, “Methods and compositions for modulating lymphatic vessels in the central nervous system” (University of Virginia Patent Foundation, priority 2016, dated 2024):
Entries after “also recorded” stand apart in the source; their conditions may differ.

Experiments:
[1] = test system: meningeal lymphatic vessels; experiment: Transcranial gel+VEGF-C156S in old mice (Example 4); format: in vivo, C57BL/6 mice; conditions: one month transcranial treatment, 2 h after OVA-A647 ICM
Procedure: […] of a gel matrix alone (vehicle) or containing 200 ng of recombinant human VEGF-C156S was applied every two weeks on top of a thinned skull of old C57BL/6 mice. One month after the initial treatment, OVA-A647 was injected ICM and mice were transcardially perfused with saline 2 h post injection. […] OVA-A647 alone is shown in the inset in the upper right corner of each of FIGS. 27A and 27B, and LYVE-1 alone is shown in the inset in the lower right corner of each of FIGS. 27A and 27B.

[2] = test system: meningeal lymphatic vessels; experiment: i.c.v. (cisterna magna) injection of rhVEGF-c, meningeal lymphatic vessel diameter (FIG. 2D-E); format: in vivo, mice; conditions: single injection of recombinant protein into the CSF (i.c.v.)
From the text: FIGS. 2A-H are a series of microscope images and graphs showing Molecular and structural characterization of meningeal lymphatic vessels. FIG. 2A is a series of representative images of Prox1 expression in the nuclei of Lyve-1^+ vessels in the dural sinuses of Prox1^tdT mice (scale bars, 10p m)(in order of left-to-right, the four panels show Lyve-1, Prox1-tdTOMATO, DAPI, and overlay). FIG. 2B is a series of representative images of podoplanin and Lyve-1 labelling on dural sinuses (scale bar, 40 μm) (in order of left-to-right, the three panels show Lyve-1. Podoplanin, and overlay). FIG. 2C is a series of representative images of VEGFR3 and Lyve-1 staining on dural sinuses (scale bar, 20 μm)(in order of left-to-right, the three panels show VEGFR3. Lyve-1, and overlay). For FIGS. 2D and 2E Adult mice were injected i.c.v. (cisterna magna) with 4 μg of rhVEGF-c (Cys156Ser) or with PBS. Meninges were harvested 7 and 14 days after the injection. […] FIG. 2E is a graph showing quantification of the meningeal lymphatic vessel diameter (mean±s.e.m.; n=4 mice each group, *P<0.05, two-way ANOVA with Bonferroni post hoc test). FIGS. 2F and 2G are a series of representative images of smooth muscle cells (alpha-smooth muscle actin, α-SMA) and Lyve-1 labelling on dural sinuses (scale bars, 50 μm (g) or 20 μm(g)). […]

meningeal lymphatic = experiment: Lymphatic drainage of fluorescent microbeads into deep cervical lymph nodes (FIG. 15); format: in vivo, mice; conditions: VEGF-c injected into CSF, 5 days after injection, vs PBS
Procedure: FIGS. 15A-E are a series of diagrams, microscope images, and graphs showing modulation of the meningeal lymphatic affects drainage into the cervical lymph nodes. […] Fluorescent microbeads (0.5 μm in diameter-5 μl) were injected in the lateral ventricle of mice at a rate of 0.5 μl/min. 30 min later, the deep cervical lymph nodes were harvested, sliced and immunostained for the presence of fluorescent beads. FIG. 15B is a pair of representative sections of deep cervical lymph nodes from sham operated (left) and ligated (right) mice immunostained for lymphatic vasculature (Lyve-1), fluorescent microbeads and Lyve-1. Note the accumulation of microbeads in the subcapsular space of the lymph nodes in the sham operated mice (left). […] N=3-4 mice per group, Student-t-test. d. Quantification of the coverage of dCLN section by fluorescent beads in PBS and Visudyne injected mice (24 h after ablation). N=3-5 mice per group, *p<0.05, Student-t-test. e. Quantification of the coverage of dCLN section by fluorescent beads in PBS and VEGF-c injected mice (5 days after VEGF-c injection). N=4 mice per group.

Row | Molecule | drainage of OVA-A647 into the dcLNs [1] | OVA-A647 influx from the CSF into the parenchyma [1] | diameter of meningeal lymphatic vessels [2] | diameter of meningeal lymphatic vessels ([2]; listed as recombinant VEGF-c) | lymphatic drainage (efficacy) after VEGF-c (meningeal lymphatic) | lymphatic drainage (efficacy) after VEGF-c (meningeal lymphatic; listed as recombinant VEGF-c)
1 | VEGF-C156S: recombinant human VEGF-C156S, applied in a gel matrix on a thinned skull (protein, UniProt P49767 112-227, looked up, variant C156S) Vascular endothelial growth …: AHYNTEILKSIDNEWRKTQCMPREVCIDVGKEFGVATNTFFKPPSVSVYRCGGCCNSEGLQCMNTSTSYLSKTLFEITVPLSQGPKPVTISFANHTSCRCMSKLDVYRQVHSIIRR | increased |  |  |  |  | 
2 | VEGF-c: VEGFR3 agonist polypeptide, lymphangiogenic growth factor, SEQ ID NO: 1; recombinant protein injected into CSF (FIG. 2e used rhVEGF-c Cys156Ser) (protein, listed as Homo sapiens) MHLLGFFSVACSLLAAALLPGPREAPAAAAAFESGLDLSDAEPDAGEATAYASKDLEEQLRSVSSVDELMTVLYPEYWKMYKCQLRKGGWQHNREQANLNSRTEETIKFAAAHYNTEILKSIDNEWRKTQCMPREVCIDVGKEFGVATNTFFKPPCVSVYRCGGCCNSEGLQCMNTSTSYLSKTLFEITVPLSQGPKPVTISFANHTSCRCMSKLDVYRQVHSIIRRSLPATLPQCQAANKTCPTNYMWNNHICRCLAQEDFMFSSDAGDDSTDGFHDICGPNKELDEETCQCVCRAGLRPASCGPHKELDRNSCQCVCKNKLFPSQCGANREFDENTCQCVCKRTCPRNQPLNPGKCACECTESPQKCLLKGKKFHHQTCSCYRRPCTNRQKACEPGFSYSEEVCRCVPSYWKRPQMS |  | improved CSF influx into brain | increase in diameter; also recorded: increase the diameters of meningeal lymphatic vessels | sufficient to increase diameter | improves the drainage | increase drainage efficacy
